This experiment deals with SNARE core complex (synaptobrevin-II 1–96, syntaxin-1A 180–262, SNAP-25A 1–83, SNAP-25A 130–206) (rat, UniProt P63045;P32851;P60881-2). As to the kind of experiment: native gel or EMSA. A general note: In EMSA bound probe runs differently from free probe, usually more slowly.

This is an account of results in paper PMC2151181 (The Journal of Cell Biology, 1999).

B1: synaptotagmin III C2A-C2B, residues 295–569 (domain or fragment)
chain: APCGRISFALRYLYGSDHLVVRILQALDLPAKDSNGFSDPYVKIYLLPDRKKKFQTKVHRKTLNPIFNETFQFSVPLAELAQRKLHFSVYDFDRFSRHDLIGQVVLDNLLELAEQPPDRPLWRDILEGGSEKADLGELNFSLCYLPTAGRLTVTIIKASNLKAMDLTGFSDPYVKASLISEGRRLKKRKTSIKKNTLNPTYNEALVFDVAPESVENVGLSIAVVDYDCIGHNEVIGVCRVGPEAADPHGREHWAEMLANPRKPVEHWHQLVEEKT
Turning to B1, the binding result is reported as “binds”.
